Measurements: patent US20250381293A1, “PEPTIDES AND MAGNETIC PARTICLE-PEPTIDE CONJUGATES FOR PREVENTION OR TREATMENT OF GLAUCOMA” (THE GOVERNORS OF THE UNIVERSITY OF ALBERTA, priority 2022, published 2025)

Columns and labels:
XFS materials = assay: Ex vivo targeting of Cy5-labeled phage-displayed peptides on exfoliative human lens capsules; type: binding; conditions: 1 hr, 37° C., human aqueous humor/BSS; fluorescence microscopy
Protocol: Amplified phages (1×10^11 pfu) were resuspended in 0.3 M NaHCO3 (pH 8.6) containing 10 μg Cy5 dye and incubated for 2 hr at room temperature in the dark. Subsequent to phage/fluorophore incubation, 40 μl of 10 mM lysine was added to interact with remaining free Cy5 dye molecules in the solution. The volume of the reaction mixture was subsequently brought up to 1 ml with PBS buffer, and the phages were purified with two rounds of 20% (w/v) polyethylene glycol-8000, 2.5 M NaCl precipitation. The labeled phages resuspended in BSS solution.
Fluorescently labeled phages carrying identified targeting peptides as well as wild-type phages without peptide-encoding inserts were incubated with exfoliative human lens capsules in a 100-μl solution containing equal volumes of human aqueous humor fluid and BSS solution. The incubation was allowed to continue for 1 hr at 37° C. After serially washing with BSST buffer (0.1, 0.3%), three times each, the lens capsules were mounted on microscope slides and were examined under an Olympus IX81 inverted fluorescence microscope (Olympus Corporation, Tokyo, Japan). The location of XFS materials on the surface of the lens capsule was confirmed in bright-field mode prior to fluorescence imaging.

hTM cells [1] = assay: Live/dead cell viability assay on hTM monolayers; type: cell-based; conditions: free peptide solution, 1 mM; mean±1 SD, n≥3
Protocol: Primary human trabecular meshwork (hTM) cells were obtained from ScienCell Research Laboratories (Carlsbad, CA), and maintained in TMCM medium (ScienCell, no. 6591). Primary cell culture was passaged according to the manufacturer's instructions. Passage three cells were seeded on tissue culture plates coated with gelatin and media were refreshed every 2-3 days. These monolayer cultures were used in subsequent experiments upon reaching 95-100% confluency.
Cell viability was further assayed using LIVE/DEAD® viability/cytotoxicity kit (Molecular Probes). Monolayers of hTM cells were treated in triplicates with peptides alone in solution (1 mM) and in conjugation with MPs (100 μg). Cell viability was then assessed according to the manufacturer's protocol. The kit is based on calcein AM/ethidium homodimer-1 (EthD-1) system, where calcein AM detects cellular esterase activity of live cells and EthD-1 stains nuclei of dead cells. A similar live/dead assay was used to investigate the effect of MP-peptide conjugates on the viability of hTM cells in the presence of the rotating magnetic field. […] The viability of hTM cells was then assessed as described above. […] The cells were treated with the rotating magnetic field for 10 min and then analyzed using live/dead assay as described before. […]

hTM cells [2] = assay: DNA fragmentation analysis (apoptosis); type: cell-based, human; conditions: free peptide solution, 24 hr (0.5 mM, elsewhere in the source)
Protocol: Effect of peptide-particle conjugates and peptide solutions on the induction of apoptotic DNA fragmentation was analyzed in hTM cells. […] Cells were recovered from wells using a cell scraper. DNA was isolated and purified using DNeasy blood and tissue kit (Qiagen). Extracted DNA molecules from control and treated hTM cells were subjected to 2% agarose gel electrophoresis and visualized by SYBR green staining.

Row | Sequence | binding of Cy5-labeled phages to XFS materials on lens capsule (XFS materials) | % of live cells (hTM cells [1]) [%] | apoptotic chromosomal DNA fragmentation (hTM cells [2])
1 | IPLLNPGSMQLS [p-IPL] | specific binding to XFS materials | 99.00 ± 0.37 | chromosomal DNA remained intact
2 | LPSYNLHPHVPP [p-LPS] | specific binding to XFS materials | 99.12 ± 0.94 | chromosomal DNA remained intact
